{"source": "paper PMC5650148", "about": "“Ssn6-Tup1 global transcriptional co-repressor: Role of the N-terminal glutamine-rich region of Ssn6” (PLoS ONE, 2017)", "binders": {"B1": {"name": "Tup1 N72, the Ssn6-interaction and Tup1 oligomerization domain (domain or fragment, yeast, UniProt P16649 1-72, looked up)", "chain": "MTASVSNTQNKLNELLDAIRQEFLQVSQEANTYRLQNQKDYDFKMNQQLAEMQQIRNTVYELELTHRKMKDA", "notes": "One molecule stands for both two-hybrid forms: LexA-Tup1 N72 as bait and Tup1 N72-Vp16 as prey; also called LexA-Tup1 N72; Tup1 N72-Vp16; source: yeast two-hybrid fusion (LexA hybrid from YCp91; Vp16 hybrid from YEp92)"}, "B2": {"name": "Ssn6 Sc3T (N175), the 175 amino-terminal residues of Ssn6 (domain or fragment, yeast, UniProt P14922 1-175, looked up)", "chain": "MNPGGEQTIMEQPAQQQQQQQQQQQQQQQQAAVPQQPLDPLTQSTAETWLSIASLAETLGDGDRAAMAYDATLQFNPSSAKALTSLAHLYRSRDMFQRAAELYERALLVNPELSDVWATLGHCYLMLDDLQRAYNAYQQALYHLSNPNVPKLWHGIGILYDRYGSLDYAEEAFAK", "notes": "Ssn6 (also known as Cyc8), yeast, the 175 amino-terminal residues: NTpolyQ tail and TPRs 1 to 3; One molecule stands for both two-hybrid forms of the same fragment: LexA-Sc3T as bait and Sc3T-Vp16 as prey; A chain carries either LexA or Vp16, never both; The LexA form was also used in the repression assay; also called LexA-Ssn6 Sc3T; LexA-Sc3T (N175); source: yeast two-hybrid fusion (LexA hybrid …)"}}, "key": {"[1]": {"target": "the molecule itself", "test": "two-hybrid; LexA hybrids as DNA-binding baits, Vp16 or Gal4 activation domain hybrids as preys; wild-type yeast strain; lacZ reporter JK103 with four LexA operators upstream of the GAL1 TATA element; beta-galactosidase activity in Miller units, average of at least three transformants"}, "[2]": {"target": "B2", "test": "two-hybrid; LexA hybrids as DNA-binding baits, Vp16 or Gal4 activation domain hybrids as preys; wild-type yeast strain; lacZ reporter JK103 with four LexA operators upstream of the GAL1 TATA element; beta-galactosidase activity in Miller units, average of at least three transformants", "conditions": "partners not purified"}, "[3]": {"target": "B1", "test": "two-hybrid; LexA hybrids as DNA-binding baits, Vp16 or Gal4 activation domain hybrids as preys; wild-type yeast strain; lacZ reporter JK103 with four LexA operators upstream of the GAL1 TATA element; beta-galactosidase activity in Miller units, average of at least three transformants", "conditions": "partners not purified"}, "[4]": {"target": "B1", "test": "cell-based or functional assay"}, "[5]": {"target": "the molecule itself", "test": "SEC; Biogel P100 gel filtration in 20 mM phosphate buffer pH 8.0, 300 mM NaCl, 1 mM DTT; calibrated with protein standards; self-association of the fragment"}}}
{"binder": "B1", "values": [{"measurement": "beta-galactosidase activity", "setting": "[1]", "value": 56, "unit": "Miller units"}, {"measurement": "beta-galactosidase activity", "setting": "[2]", "value": 51, "unit": "Miller units"}]}
{"binder": "B2", "values": [{"measurement": "beta-galactosidase activity", "setting": "[3]", "value": 80, "unit": "Miller units"}, {"measurement": "fold repression of the 4Lop-CYC1 lacZ reporter by LexA-Ssn6 Sc3T in the wild-type strain (endogenous Tup1)", "setting": "[4]", "value": 12, "unit": "fold"}]}
{"binder": "Ssn6 Δ29 (amino acids 30 to 180) (domain or fragment, yeast, UniProt P14922 30-180, looked up, Ssn6 (also known as Cyc8), yeast, amino acids 30 to 180; lacks residues 1-29 of the NTpolyQ tail and contains three intact TPRs; also called Ssn6 Δ29-Gal4; LexA-Ssn6 Δ29; source: yeast two-hybrid fusion (clone isolated from a Gal4pAD yeast genomic library, pACTII)) QAAVPQQPLDPLTQSTAETWLSIASLAETLGDGDRAAMAYDATLQFNPSSAKALTSLAHLYRSRDMFQRAAELYERALLVNPELSDVWATLGHCYLMLDDLQRAYNAYQQALYHLSNPNVPKLWHGIGILYDRYGSLDYAEEAFAKVLELD", "values": [{"measurement": "beta-galactosidase activity", "setting": "[2]", "value": 93, "unit": "Miller units"}, {"measurement": "fold repression of the 4Lop-CYC1 lacZ reporter by LexA-Ssn6 Δ29 in the wild-type strain (endogenous Tup1)", "setting": "[4]", "value": 1, "unit": "fold"}]}
{"binder": "Ssn6 Δ45 (amino acids 46-181), Vp16 activation hybrid (domain or fragment, yeast, UniProt P14922 46-181, looked up, Ssn6 (also known as Cyc8), yeast, amino acids 46-181; lacks the entire NTpolyQ tail (1-45); the four N-terminal TPRs; also called Ssn6 Δ45-Vp16; Ssn6 Δ45-Vp1; source: yeast two-hybrid fusion (YEp92)) AETWLSIASLAETLGDGDRAAMAYDATLQFNPSSAKALTSLAHLYRSRDMFQRAAELYERALLVNPELSDVWATLGHCYLMLDDLQRAYNAYQQALYHLSNPNVPKLWHGIGILYDRYGSLDYAEEAFAKVLELDP", "values": [{"measurement": "beta-galactosidase activity", "setting": "[2]", "value": 122, "unit": "Miller units"}, {"measurement": "fold repression of the 4Lop-CYC1 lacZ reporter by LexA-Ssn6 Δ45 in the wild-type strain (endogenous Tup1)", "setting": "[4]", "value": 1, "unit": "fold"}]}
{"binder": "Ssn6 Δ45 (amino acids 46-181), purified recombinant fragment (domain or fragment, yeast, UniProt P14922 46-181, looked up, Ssn6 (also known as Cyc8), yeast, amino acids 46-181; the four N-terminal TPRs, without the NTpolyQ tail; Cloned in pGEX-2T; GST was removed with thrombin on the column; also called GST-Δ45; source: E. coli BL21(DE3), purified (Glutathione Sepharose 4B, thrombin digestion, Biogel P100 gel filtration)) AETWLSIASLAETLGDGDRAAMAYDATLQFNPSSAKALTSLAHLYRSRDMFQRAAELYERALLVNPELSDVWATLGHCYLMLDDLQRAYNAYQQALYHLSNPNVPKLWHGIGILYDRYGSLDYAEEAFAKVLELDP", "values": [{"measurement": "stoichiometry N", "setting": "[5]", "value": "~3"}]}
